Data published in PMC2744139.

Target: Cdc13 amino-terminus through the DBD (N) (S. cerevisiae)
Assay: fluorescence polarisation

Hsp82 (yeast Hsp90 molecular chaperone) (from UniProt P02829 1-709) (natural protein)
Kd: 35 nM
